Results as given in the supplement of paper PMC10126150.
± gives the standard deviation of the averaged measurements.

System: ATP
Test: switch fluorescence ratio, 500 uM ATP over buffer (Cy3 cluster intensity, sum of 5 cycles each) (fold (ratio)); higher = stronger signal-on switching upon ATP binding; sequences stand for … in TCGTCGGCAGCGTCAGATGTGTATAAGAGACAGTTTTTTTTTTTTTTTTTTTTTTTTT…TC
Settings: aptamer strand: ATP DNA aptamer (quencher-CACCTGGGGGAGTATTGCGGAGGAAGG + anchor), 100 nM annealed; ATP concentration: 500 uM
Outline: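 Clusters with intensities outside 100-1000 RFU were excluded. The remaining Cy3-labelled switching-strand clusters on a modified Illumina MiSeq flow-cell had been annealed to 100 nM quencher-labelled ATP aptamer and imaged in selection buffer, then after 15 min with 500 uM ATP at 22 °C, for five cycles separated by NaOH stripping and re-annealing. The fluorescence ratio, averaged per switch-domain sequence, is each cluster's summed target-cycle Cy3 intensity over its summed buffer-cycle Cy3 intensity.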
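Further: ATP exposure 15 min at 22 °C before imaging.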

Sequence | switch fluorescence ratio
TCACTTAGAA | 1.04 ± 0.016
TCACTTGAGC | 1.011 ± 0.0091
TCAGAAATGT | 1.01 ± 0.021
TCAGAAGGTG | 1.59 ± 0.079
TCAGAATTTT | 1.04 ± 0.02
TCAGACAGAT | 1.02 ± 0.035
TCAGACTCAG | 0.992 ± 0.021
TCAGACTTTG | 0.978 ± 0.022
TCAGAGAAGA | 0.962 ± 0.023
TCAGAGGGCT | 0.991 ± 0.018
TCAGAGGGTT | 1.01 ± 0.031
TCAGAGGTTT | 0.973 ± 0.024
TCAGATATAC | 1.581 ± 0.0082
TCAGCAGGGG | 2.67 ± 1.9
TCAGCATGGT | 1.04 ± 0.091
TCAGCGGGAG | 1.012 ± 0.0016
TCAGCGGGTT | 1.04 ± 0.12
TCAGCTCTTC | 0.987 ± 0.042
TCAGGAGGTG | 1.07 ± 0.019
TCAGGCAGGC | 0.936 ± 0.052
TCAGGCGGC | 0.992 ± 0.017
TCAGGGACTT | 0.9845 ± 0.0077
TCAGGGGATT | 1.02 ± 0.031
TCAGGGGCAG | 1.06 ± 0.081
TCAGGGGGAG | 1.02 ± 0.054

Sequence | switch fluorescence ratio
TCAGGGGGCC | 1.02 ± 0.077
TCAGGGGTAT | 1.03 ± 0.028
TCAGGGGTGC | 1.09 ± 0.049
TCAGGGTAGC | 1.02 ± 0.02
TCAGGGTCCG | 0.961 ± 0.017
TCAGTAATCT | 1.01 ± 0.058
TCAGTACTTT | 0.998 ± 0.043
TCAGTATGTT | 0.965 ± 0.019
TCAGTGACGG | 1.0248 ± 0.00071
TCAGTGAGTA | 0.98 ± 0.019
TCAGTTATCG | 0.985 ± 0.014
TCAGTTGGAA | 0.977 ± 0.039
TCAGTTTACT | 0.998 ± 0.025
TCAGTTTTAC | 1.01 ± 0.052
TCATAACTTT | 0.984 ± 0.017
TCATAAGTGA | 0.9848 ± 0.0083
TCATACCATA | 1.09 ± 0.03
TCATACGTCT | 0.986 ± 0.09
TCATAGGTCA | 0.972 ± 0.024
TCATATACGA | 1.09 ± 0.015
TCATATACGC | 1.1 ± 0.011
TCATATATCT | 0.9937 ± 0.0058
TCATATGGTT | 0.999 ± 0.019
TCATATGTTG | 1.018 ± 0.0036
TCATATTTAT | 0.996 ± 0.024

Sequence | switch fluorescence ratio
TCATCAGGCC | 1.02 ± 0.012
TCATCAGTGA | 0.998 ± 0.028
TCATCCGGAT | 1.25 ± 0.049
TCATCTAGTG | 1 ± 0.049
TCATCTGTTG | 1 ± 0.033
TCATGAACAC | 1.01 ± 0.05
TCATGACGGT | 1.011 ± 0.0028
TCATGAGCTT | 1.039 ± 0.0015
TCATGATATG | 0.978 ± 0.027
TCATGCGGTG | 0.967 ± 0.01
TCATGCGTAA | 2.03 ± 0.069
TCATGGGGTA | 0.9617 ± 0.004
TCATGGGGTG | 1.05 ± 0.07
TCATGGTCTG | 1 ± 0.012
TCATGTGAAA | 1.03 ± 0.021
TCATGTTAAA | 0.98647 ± 0.0005
TCATGTTTTT | 1.05 ± 0.14
TCATTAATTG | 1.024 ± 0.0078
TCATTAGAAA | 1 ± 0.013
TCATTATGTG | 0.98 ± 0.023
TCATTATTCT | 0.97 ± 0.012
TCATTCGGGG | 0.973 ± 0.016
TCATTCGTCG | 0.9712 ± 0.0031
TCATTGCTTT | 1 ± 0.015
TCATTGGTTA | 1.02 ± 0.042

Sequence | switch fluorescence ratio
TCATTGTGAG | 1 ± 0.038
TCATTGTTGG | 1 ± 0.023
TCATTTGGTT | 0.988 ± 0.042
TCATTTGTGC | 1.01 ± 0.039
TCATTTTGGG | 0.999 ± 0.028
TCCAAAAACG | 1.15 ± 0.21
TCCAAACCAG | 1.06 ± 0.012
TCCAAAGGGC | 1.07 ± 0.024
TCCAAATTAC | 2.08 ± 0.064
TCCAAGACGG | 1.02 ± 0.046
TCCAAGCTGG | 1.03 ± 0.025
TCCAAGGTCC | 1.04 ± 0.042
TCCAGAAGGC | 1.09 ± 0.13
TCCAGAAGTT | 1.07 ± 0.057
TCCAGACAGT | 0.984 ± 0.026
TCCAGAGGGA | 1.28 ± 0.23
TCCAGCTGTG | 0.9916 ± 0.0022
TCCAGGACCA | 1.03 ± 0.042
TCCAGGCGAA | 1.08 ± 0.038
TCCAGGGCTT | 1.06 ± 0.013
TCCAGGGGGC | 1.18 ± 0.16
TCCATAAGGG | 1.01 ± 0.023
TCCATGGGTG | 1.52 ± 0.033
TCCATGTTTT | 1.14 ± 0.22
TCCATTGAAC | 1.017 ± 0.0026

Sequence | switch fluorescence ratio
TCCATTTTGG | 0.998 ± 0.039
TCCCACTGCT | 1.03 ± 0.034
TCCCATCTGT | 0.984 ± 0.031
TCCCCGACGT | 1.53 ± 0.22
TCCCCGCGCT | 1.25 ± 0.37
TCCCGAAGAT | 1.03 ± 0.023
TCCCGCGGCT | 1.08 ± 0.045
TCCCGCTGGG | 1.17 ± 0.22
TCCCGGTCCG | 1 ± 0.027
TCCCTCCCCT | 1.25 ± 0.056
TCCCTGGTAT | 1.04 ± 0.014
TCCCTGTTGC | 1.09 ± 0.045
TCCCTTTGGC | 1.01 ± 0.04
TCCGAAAAAG | 1.33 ± 0.44
TCCGAAATCA | 1.6 ± 0.48
TCCGAAGGAA | 1.11 ± 0.042
TCCGAATGCG | 1.11 ± 0.0041
TCCGACGTAG | 1.19 ± 0.31
TCCGAGGCCA | 3.91 ± 3.2
TCCGAGGCGG | 2.131 ± 0.017
TCCGAGGGCT | 1.59 ± 0.084
TCCGAGTGAG | 1.13 ± 0.058
TCCGATTGAA | 1.08 ± 0.011
TCCGCAGAG | 6.2 ± 0.49
TCCGCTTGTA | 1.39 ± 0.11

Sequence | switch fluorescence ratio
TCCGCTTTTT | 1.1 ± 0.15
TCCGGAGGGA | 1.04 ± 0.089
TCCGGCGGTG | 1.03 ± 0.027
TCCGGCTTTG | 0.953 ± 0.075
TCCGGGAAAT | 2.88 ± 0.66
TCCGGGAGGG | 1.02 ± 0.053
TCCGGGATCC | 1.25 ± 0.04
TCCGGGCCTT | 1.02 ± 0.09
TCCGGGGGCA | 1.59 ± 0.027
TCCGGGGTGG | 1.022 ± 0.0097
TCCGGTTCCT | 1.07 ± 0.036
TCCGGTTTTT | 1.07 ± 0.16
TCCGTATATT | 1.103 ± 0.0024
TCCGTGAGAT | 1.44 ± 0.047
TCCGTGTGTG | 0.989 ± 0.0075
TCCTCAGCGT | 3 ± 1
TCCTGATGTT | 0.982 ± 0.046
TCCTGATTGA | 0.984 ± 0.063
TCCTGTGAAC | 1.04 ± 0.046
TCCTGTGGGT | 0.99 ± 0.036
TCCTGTTTTC | 0.987 ± 0.021
TCCTTATAGG | 1 ± 0.044
TCCTTCGGTT | 1.393 ± 0.0023
TCCTTGTTTT | 1 ± 0.028
TCCTTTAAAT | 1.13 ± 0.0032

Sequence | switch fluorescence ratio
TCCTTTGGTT | 0.9865 ± 0.0034
TCCTTTTTTA | 1.01 ± 0.015
TCGAAAAAGG | 1.0045 ± 8.5e-06
TCGAAAAATT | 0.975 ± 0.048
TCGAAAATAT | 1.5 ± 1
TCGAAAGTTA | 1.04 ± 0.022
TCGAAGATGT | 0.996 ± 0.019
TCGAAGGAAT | 1.24 ± 0.037
TCGAAGGGCT | 1.016 ± 0.01
TCGAAGGGGA | 0.971 ± 0.035
TCGAATAATT | 1 ± 0.041
TCGAATAGAT | 0.958 ± 0.04
TCGAATATTT | 1.02 ± 0.073
TCGACGGGGA | 1.1 ± 0.047
TCGAGATGG | 0.97289 ± 7.7e-05
TCGAGATTAT | 1.01 ± 0.027
TCGAGCCTTT | 0.9909 ± 0.0014
TCGAGGGGAA | 1.13 ± 0.15
TCGAGGGGTT | 0.993 ± 0.011
TCGAGGTTGC | 0.993 ± 0.025
TCGAGTTCAG | 0.99 ± 0.021
TCGATAATTA | 0.97 ± 0.09
TCGATACATG | 0.993 ± 0.034
TCGATAGTTG | 0.961 ± 0.054
TCGATATATG | 1 ± 0.028

Sequence | switch fluorescence ratio
TCGATATTTA | 0.982 ± 0.02
TCGATCGCAT | 2.51 ± 2.2
TCGATCGCTA | 1.43 ± 0.59
TCGATCTGTG | 0.99652 ± 0.00045
TCGATGTTGT | 0.987 ± 0.03
TCGATTTTGG | 1 ± 0.029
TCGCAGGGGG | 0.992 ± 0.043
TCGCCATGAT | 0.999 ± 0.02
TCGCCCGAGC | 1.09 ± 0.11
TCGCCGTTCT | 0.99 ± 0.033
TCGCGAGAGC | 1.004 ± 0.0057
TCGCGCCCTG | 1.03 ± 0.043
TCGCGGTTCT | 1.11 ± 0.085
TCGCGTCTCA | 1.01 ± 0.046
TCGCTATTTA | 1.033 ± 0.0085
TCGCTGAAGC | 1.02 ± 0.013
TCGCTTAATT | 1.02 ± 0.032
TCGCTTCTCT | 1.76 ± 1
TCGCTTTACT | 3.87 ± 0.81
TCGGAAGACA | 1.01 ± 0.0069
TCGGAAGGCT | 0.999 ± 0.089
TCGGAAGGG | 0.988 ± 0.037
TCGGAATATT | 1.09 ± 0.062
TCGGAATTGT | 0.9992 ± 0.0056
TCGGACGACC | 1.15 ± 0.12
